Experimental data: the supplement of paper PMC5998384

What was measured:
HeLa Kyoto [1] = assay: melting temperature (median over replicates), in situ; higher = more thermally stable
HeLa Kyoto [2] = assay: thermal stability score vs G1/S (z-score of summed log2 fold changes over temperatures); higher = more thermally stable than in G1/S
HeLa Kyoto [3] = assay: solubility change mitosis vs G1/S (difference of NP-40 vs SDS log2 ratios) (log2 ratio difference); higher = more soluble in mitosis
HeLa Kyoto [4] = assay: solubility in G1/S (NP-40 vs SDS abundance) (log2 ratio); higher = more soluble; conditions: cell cycle stage: G1/S
[5] = cell cycle stage: early G1 (4.5 h after nocodazole release)
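Wherever melting temperature (median over replicates), in situ is given: HeLa Kyoto cells synchronized by double thymidine or nocodazole block, proteins quantified by TMT10plex mass spectrometry, three independent biological replicates.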
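Wherever solubility change mitosis vs G1/S (difference of NP-40 vs SDS log2 ratios) is given: synchronized HeLa Kyoto cells (double thymidine block for G1/S, nocodazole release for mitosis), protein amounts in NP-40 versus SDS lysates quantified by mass spectrometry, three biological replicates.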
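Wherever solubility in G1/S (NP-40 vs SDS abundance) is given: HeLa Kyoto cells arrested at G1/S by double thymidine block, proteins quantified by TMT10plex mass spectrometry in mild NP-40 versus SDS extracts, three biological replicates.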
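Wherever thermal stability score vs G1/S (z-score of summed log2 fold changes over temperatures) is given: synchronized HeLa Kyoto cells, proteins quantified by TMT10plex mass spectrometry, three biological replicates, mitosis taken 0.5 h after nocodazole release, G1/S directly after double thymidine block.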

Substance	melting temperature (HeLa Kyoto [1]; cell cycle stage: G1/S) [°C]	melting temperature (HeLa Kyoto [1]; cell cycle stage: mitosis) [°C]	thermal stability score (HeLa Kyoto [2]; [5])	thermal stability score (HeLa Kyoto [2]; cell cycle stage: mitosis)	solubility change mitosis (log2) (HeLa Kyoto [3])	solubility in G1/S (log2) (HeLa Kyoto [4])
MAFLKLRDQPSLVQAIFNGDPDEVRALIFKKEDVNFQDNEKRTPLHAAAYLGDAEIIELLILSGARVNAKDSKWLTPLHRAVASCSEEAVQVLLKHSADVNARDKNWQTPLHIAAANKAVKCAEALVPLLSNVNVSDRAGRTALHHAAFSGHGEMVKLLLSRGANINAFDKKDRRAIHWAAYMGHIEVVKLLVSHGAEVTCKDKKSYTPLHAAASSGMISVVKYLLDLGVDMNEPNAYGNTPLHVACYNGQDVVVNELIDCGAIVNQKNEKGFTPLHFAAASTHGALCLELLVGNGADVNMKSKDGKTPLHMTALHGRFSRSQTIIQSGAVIDCEDKNGNTPLHIAARYGHELLINTLITSGADTAKRGIHGMFPLHLAALSGFSDCCRKLLSSGFDIDTPDDFGRTCLHAAAAGGNLECLNLLLNTGADFNKKDKFGRSPLHYAAANCNYQCLFALVGSGASVNDLDERGCTPLHYAATSDTDGKCLEYLLRNDANPGIRDKQGYNAVHYSAAYGHRLCLQLIASETPLDVLMETSGTDMLSDSDNRATISPLHLAAYHGHHQALEVLVQSLLDLDVRNSSGRTPLDLAAFKGHVECVDVLINQGASILVKDYILKRTPIHAAATNGHSECLRLLIGNAEPQNAVDIQDGNGQTPLMLSVLNGHTDCVYSLLNKGANVDAKDKWGRTALHRGAVTGHEECVDALLQHGAKCLLRDSRGRTPIHLSAACGHIGVLGALLQSAASMDANPATADNHGYTALHWACYNGHETCVELLLEQEVFQKTEGNAFSPLHCAVINDNEGAAEMLIDTLGASIVNATDSKGRTPLHAAAFTDHVECLQLLLSHNAQVNSVDSTGKTPLMMAAENGQTNTVEMLVSSASAELTLQDNSKNTALHLACSKGHETSALLILEKITDRNLINATNAALQTPLHVAARNGLTMVVQELLGKGASVLAVDENGYTPALACAPNKDVADCLALILATMMPVSSSSPLSSLTFNAINRYTNTSKTVSFEALPIMRNEPSSYCSFNNIGGEQEYLYTDVDELNDSDSETY [ANKRD28]	51.2	50.8	-0.536	-1.19	-0.133	-0.288
NIPBL	47.3	49.3	2.24	6.45	0.263	-0.446
MRSGGRGRPRLRLGERGLMEPLLPPKRRLLPRVRLLPLLLALAVGSAFYTIWSGWHRRTEELPLGRELRVPLIGSLPEARLRRVVGQLDPQRLWSTYLRPLLVVRTPGSPGNLQVRKFLEATLRSLTAGWHVELDPFTASTPLGPVDFGNVVATLDPRAARHLTLACHYDSKLFPPGSTPFVGATDSAVPCALLLELAQALDLELSRAKKQAAPVTLQLLFLDGEEALKEWGPKDSLYGSRHLAQLMESIPHSPGPTRIQAIELFMLLDLLGAPNPTFYSHFPRTVRWFHRLRSIEKRLHRLNLLQSHPQEVMYFQPGEPFGSVEDDHIPFLRRGVPVLHLISTPFPAVWHTPADTEVNLHPPTVHNLCRILAVFLAEYLGL [QPCTL]	51.9	52.7	3.48	4.18	0.00122	-0.29
MRTDSGARLEEGHLRPPRALPPVPSQDDIPLSRPKKKKPRTKNTPASASLEGLAQTAGRRPSEGNEPSTKELKEHPEAPVQRRQKKTRLPLELETSSTQKKSSSSSLLRNENGIDAEPAEEAVIQKPRRKTKKTQPAELQYANELGVEDEDIITDEQTTVEQQSVFTAPTGISQPVGKVFVEKSRRFQAADRSELIKTTENIDVSMDVKPSWTTRDVALTVHRAFRMIGLFSHGFLAGCAVWNIVVIYVLAGDQLSNLSNLLQQYKTLAYPFQSLLYLLLALSTISAFDRIDFAKISVAIRNFLALDPTALASFLYFTALILSLSQQMTSDRIHLYTPSSVNGSLWEAGIEEQILQPWIVVNLVVALLVGLSWLFLSYRPGMDLSEELMFSSEVEEYPDKEKEIKASS [TMEM237]	54.9	55.4	-4.81	-5.57	-0.0698	-0.0506
